T1: human IL-1RAPL1 extracellular domain-Fc chimera (human, UniProt Q9NZN1 19-357)
T1 construct: extracellular domain; Coated on 96 well plates at 0.5 ug; also called IL-1RAPL1-Fc; immobilized IL-1RAPL1; not shown: Fc part of the chimera
T1 sequence (looked up): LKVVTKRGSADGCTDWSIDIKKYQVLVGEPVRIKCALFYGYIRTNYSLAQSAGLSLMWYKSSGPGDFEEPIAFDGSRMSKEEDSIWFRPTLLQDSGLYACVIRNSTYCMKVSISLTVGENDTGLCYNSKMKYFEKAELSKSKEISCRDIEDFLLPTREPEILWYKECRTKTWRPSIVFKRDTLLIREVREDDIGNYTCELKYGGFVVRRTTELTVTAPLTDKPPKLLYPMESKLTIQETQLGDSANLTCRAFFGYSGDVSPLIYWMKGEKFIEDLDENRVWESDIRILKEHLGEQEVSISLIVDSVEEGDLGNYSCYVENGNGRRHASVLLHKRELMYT


How the values were obtained:
[1] = molecular target: T1, human IL-1RAPL1 extracellular domain-Fc …; test: plate binding assay on immobilized IL-1RAPL1 extracellular domain-Fc chimera (FIG. 7B)
Experimental: (§1) After 24 h IL-6 concentration in the supernatants was measured using cytometric bead array, normalized results are shown. Data are means±SEM, n=7. (B) Binding kinetics of full length and cleaved IL-38 to immobilized IL-1RAPL1. […] IL-38 binding to the extracellular domain of the receptors was detected using biotinylated monoclonal IL-38 antibody. Data are means±SEM, n=5.*p<0.05, ANOVA with Bonferroni's correction.
(§2) The inventors performed a receptor binding assay as explained above. Both IL-38 isoforms bound to IL-1RAPL1 in this assay (FIG. 7B). However, binding kinetics seemed to differ slightly. […] IL-1RAPL1 knock-down in macrophages abrogated both, IL-6 induction by full-length 11-38 and IL-6 suppression by truncated IL-38 (FIG. 7C).

[2] = molecular target: T1, human IL-1RAPL1 extracellular domain-Fc …; test: plate binding assay: IL-1RAPL1-Fc coated, IL-38 titrated, detected with biotinylated monoclonal IL-38 antibody
Experimental: as §1, §2

Binder	binding result [1]	binding result [2]
recombinant human truncated (cleaved) IL-38 (IL-38aa20-152) (ligand, also called truncated IL-38) LYTRDGQLLVGDPVADNCCAEKICILPNRGLARTKVPIFLGIQGGSRCLACVETEEGPSLQLEDVNIEELYKGGEEATRFTFFQSSSGSAFRLEAAAWPGWFLCGPAEPQQPVQLTKESEPSARTKFYFEQSW	binds	–
recombinant human full length IL-38 (IL-38aa1-152) (ligand) MCSLPMARYYIIKYADQKALYTRDGQLLVGDPVADNCCAEKICILPNRGLARTKVPIFLGIQGGSRCLACVETEEGPSLQLEDVNIEELYKGGEEATRFTFFQSSSGSAFRLEAAAWPGWFLCGPAEPQQPVQLTKESEPSARTKFYFEQSW	–	binds

From US20200277349A1 (FRAUNHOFER GESELLSCHAFT ZUR F RDERUNG DER ANGEWANDTEN …, published 2020)
